Results from article PMC7241105 (bioRxiv, 2020).

B1: CV43 (antibody, V domains shown)
VH: QVQLVESGGGVVQPGRSLRLSCAASGFTFSSYAMHWVRQAPGKGLEWVAVISYDGSNKYYADSVKGRFTISRDNSKNTLYLQMNSLRAEDTAVYYCARVTVVHFDYWGQGTLVTVSS
VL: NFMLTQPHSVSESPGKTVTISCTGSSGSIASNYVQWYQQRPGSAPTTVIYEDNQRPSGVPDRFSGSIDSSSNSASLTISGLKTEDEADYYCQSYDSSNWVFGGGTKLTVL
B2: CV5 (antibody, V domains shown)
VH: QVQLVQSGAEVKKPGASVKVTCKASGYTFTSYYLHWVRQAPGQGLEWMGIINPSGGTTSYAQKFQGRVTMTRDTSTSTVYMELSSLRSEDTAVYYCARAGRRYSSSDDGAFDIWGQGTMVTVSS
VL: not shown

Biological target: SARS-CoV-2 receptor binding domain (RBD) (SARS-CoV-2, UniProt P0DTC2)
Test: BLI

Binder	binding result
B1	binds
B2	binds
